# Results taken from patent EP0842948B1 (MOCHIDA PHARMACEUTICAL CO., LTD., dated 2009).
# “And” between values parts separate entries of the source, which are not always exact repeats. Identical values can stand only once.
# T1: human Fas ligand expressed on 1A12 cells (human, UniProt P48023 1-281)
# T1 construct: whole, on cells; also called Fas ligand antigen on 1A12 transfectant cells
# T1 sequence (looked up): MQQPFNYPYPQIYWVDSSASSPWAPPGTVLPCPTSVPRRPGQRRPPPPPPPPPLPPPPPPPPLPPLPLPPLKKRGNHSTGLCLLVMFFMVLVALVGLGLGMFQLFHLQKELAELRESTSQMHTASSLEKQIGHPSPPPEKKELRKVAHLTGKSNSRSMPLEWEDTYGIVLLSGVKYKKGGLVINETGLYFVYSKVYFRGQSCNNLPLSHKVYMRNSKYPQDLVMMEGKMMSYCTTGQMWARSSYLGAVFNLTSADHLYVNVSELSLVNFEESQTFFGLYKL
# B1: mouse monoclonal antibody F919-9-18 (antibody, V domains shown)
# VH: QIQLVQSGPELKKPGETVKISCKASGYTFTEYPMHWVKQAPGKGFKWMGMIYTDTGEPSYAEEFKGRFAFSLETSASTAYLQINFLKNEDTATYFCVRFYWDYFDYWGQGTTLTVSS
# VL: DIQMTQTTSSLSASLGDRVTISCRASQDISNYLNWYQQKPDGTVKLLIYYTSRLHSGVPSRFSGSGSGTNYSLTISNLEQGDIATYFCQQGSTLPWTFGGGTKLEIK
# Experiments:
# [1] = target: extracellular domain of the Fas ligand derived from COS-1 cell (human); test: cell-based or functional assay
# [2] = target: T1, human Fas ligand expressed on 1A12 cells; test: competitive binding against 125I-labelled mouse F919 on 1A12 cells
binder,measurement,setting,value
B1,apoptosis-suppression activity (fold against F883-1-1),[1],100
same,Ka,[2],3e+08 M⁻¹ and 4e+08 M⁻¹
